According to patent US9212226B2, “Amino acid sequences directed against CXCR4 and other GPCRs and compounds comprising the same” (Ablynx N.V., priority 2008, dated 2015):
“Also recorded” adds a separate entry of the source.

B1: 238C5: Nanobody (VHH) raised against human CXCR4, SEQ ID NO: 243 (protein)
VHH: EVQLMESGGGLVQAGGSLRLACAASGFTFEDYAIGWFRKAPGKEREGVSCISGSDGSTTYADSVKGRFTISTDNAKNTVYLEMNSLKPEDTAVYYCAQQYGVGGRVVCPGPYEYDVWGQGTQVTVSS
modifications: Nanobody, Nanobody constructs or fragments thereof
B2: 238D2-20GS-238D4: heterobivalent Nanobody, 238D2 linked to 238D4 by a 20 amino acid GGGGS linker (protein)
chain: EVQLVESGGGLVQTGGSLRLSCAASGFTFSSYAMSWVRQAPGKGLEWVSGIKSSGDSTRYAGSVKGRFTISRDNAKNMLYLQMYSLKPEDTAVYYCAKSRVSRTGLYTYDNRGQGTQVTVSSGGGGSGGGGSGGGGSGGGGSEVQLMESGGGLVQAGGSLRLSCAASGRTFNNYAMGWFRRAPGKEREFVAAITRSGVRSGVSAIYGDSVKDRFTISRDNAKNTLYLQMNSLKPEDTAVYTCAASAIGSGALRRFEYDYSGQGTQVTVSS
modifications: Nanobody, Nanobody constructs or fragments thereof
notes: heterobivalent Nanobody, 238D2 linked to 238D4 by a 20 amino acid GGGGS linker
B3: 238D2-15GS-238D4: heterobivalent Nanobody, 238D2 linked to 238D4 by a 15 amino acid GGGGS linker (protein)
chain: EVQLVESGGGLVQTGGSLRLSCAASGFTFSSYAMSWVRQAPGKGLEWVSGIKSSGDSTRYAGSVKGRFTISRDNAKNMLYLQMYSLKPEDTAVYYCAKSRVSRTGLYTYDNRGQGTQVTVSSGGGGSGGGGSGGGGSEVQLMESGGGLVQAGGSLRLSCAASGRTFNNYAMGWFRRAPGKEREFVAAITRSGVRSGVSAIYGDSVKDRFTISRDNAKNTLYLQMNSLKPEDTAVYTCAASAIGSGALRRFEYDYSGQGTQVTVSS
modifications: Nanobody, Nanobody constructs or fragments thereof
notes: heterobivalent Nanobody, 238D2 linked to 238D4 by a 15 amino acid GGGGS linker

Key:
CXCR4 [1] = target: T1, CXCR4 (Homo sapiens, UniProt P61073); experiment: [125I]-CXCL12 competition binding on membranes from HEK293T cells transiently expressing CXCR4; conditions: for Rel. potency, relative to monovalent 238D2 / Rel. potency, relative to monovalent 238D4: [125I]-CXCL12 displacement; for Rel. potency, relative to monovalent 238D2: potency relative to those of monovalent 238D2; for Rel. potency, relative to monovalent 238D4: potency relative to those of monovalent 238D4
T1 sequence (P61073 whole entry): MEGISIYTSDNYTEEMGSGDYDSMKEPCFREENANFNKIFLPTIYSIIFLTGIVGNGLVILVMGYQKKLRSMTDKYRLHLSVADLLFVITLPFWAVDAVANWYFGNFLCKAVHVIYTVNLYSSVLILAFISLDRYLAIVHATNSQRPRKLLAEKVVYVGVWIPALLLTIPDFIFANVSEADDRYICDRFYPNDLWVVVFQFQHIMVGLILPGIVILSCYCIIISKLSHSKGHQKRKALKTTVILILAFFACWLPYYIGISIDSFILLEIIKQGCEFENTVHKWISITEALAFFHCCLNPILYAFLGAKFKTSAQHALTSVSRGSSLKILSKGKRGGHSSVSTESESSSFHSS
Procedure: (§1) HEK293T cells were maintained at 37° C. in a humidified 5% CO2, 95% air atmosphere in Dulbecco's modified Eagle's medium (DMEM) containing 2 mM L-glutamine, 50 IU/ml penicillin, 50 μg/ml streptomycin, and 10% (v/v) fetal calf serum. Jurkat cells were cultured in a humidified 5% CO2, 95% air atmosphere in a 1:1 mixture of Dulbecco's modified Eagle's medium (DMEM) and Ham's F12 medium containing 2 mM L-glutamine, 50 IU/ml penicillin, 50 μg/ml streptomycin, and 10% (v/v) fetal calf serum. […] [^125 I]-Labelling— Radiolabeling of Nanobodies with ^125I was performed using the Iodo-gen method (Pierce, Rockford, Ill.) according to the manufacturer's protocol. ^125I-labeled Nanobodies was separated from free iodine (>99%) using a Sephadex G-25 gel filtration column (Amersham Biosciences, Piscataway, N.J.). […] Competition Binding Assays— Membranes from HEK293T cells transiently expressing CXCR3 or CXCR4 were prepared 48 h after transfection as follows. Cells were washed and scraped from the cell culture dishes with ice-cold PBS containing 1 mm EDTA. The scraped cells were pelleted at 1500×g for 10 min at 4° C. The pellet was washed and then resuspended in ice-cold membrane buffer (15 mM Tris, pH 7.5, 1 mM EGTA, 0.3 mM EDTA, and 2 mM MgCl2). The cell suspension was homogenized by 10 strokes at 1200 rpm using a Teflon-glass homogenizer and rotor and further subjected to three freeze-thaw cycles using liquid nitrogen. Membranes were separated by centrifugation at 40,000 g for 25 min at 4° C. The membrane pellet was washed and resuspended in ice-cold Tris-sucrose buffer (20 mM Tris, pH 7.4, and 250 mM sucrose) and frozen in liquid nitrogen. The total protein was determined using a Bradford assay (Bio-Rad). […] Membranes were then harvested over polyethylenimine (0.5%)-treated Whatman GF/C filter plates and washed three times with ice cold binding buffer containing 500 mM NaCl. Plates were counted by liquid scintillation. Inositol Phosphate Accumulation Assay— 24 hours post transfection with pcDNA3.1-CXCR4 and pcDNA1-HA-mG {alpha} qi5 (see Verzijl et al, 2008 supra), 250.000 cells were seeded into 24-wells plates and labelled overnight using inositol-free minimal essential medium supplemented with 1 μCi myo-[2-^3H]-inositol. The next day, the cells were washed once to remove not incorporated myo-[2-^3H]-inositol. […] In agonist experiments, the cells were directly stimulated with test compounds and LiCl (10 mM) in assay buffer for 2 h at 37° C. The stimulation was stopped by aspirating the stimulation medium and adding ice-cold 10 mM formic acid. The accumulated inositol phosphates were isolated by anion exchange chromatography and counted by liquid scintillation. CRE Reporter Gene Assay— HEK239T cells were transfected with pCRE/β-galactosidase (Chen W, Shields T S, Stork P J S, Cone R D (1995) Anal Biochem 226:349-354) and plasmids (pcDEF3 or pcDNA3.1) encoding the indicated receptors. 40,000 transfected cells per well were seeded into 96 well plates and grown in DMEM supplemented with 10% fetal calf serum. The medium was replaced 32 h after transfection by serum-free DMEM supplemented with 0.5% bovine serum albumin and ligands as indicated. […] The β-galactosidase activity was determined by the measurement of absorption at 420 nm with a PowerwaveX340 plate reader (Bio-Tek Instruments Inc., Winooski, Vt.) after incubation with the assay buffer when the OD420 value for forskolin (3 μM) controls reached 0.4-0.6. Chemotaxis Assay— The chemotactic responsiveness of Jurkat 3D cells was assessed using ChemoTx™ plates (Receptor Technologies Ltd., Oxon, UK) in which a upper cell-containing compartment is separated from a lower chemoattractant-containing compartment by a polyvinylpyrollidone-free polycarbonate filter with 5-μm pores. Cells were harvested, washed and resuspended in RPMI containing 0.5% bovine serum albumin and then loaded to 150,000 cells per well in a volume of 25 μl into the upper compartment of the chemotaxis chamber.

CXCR4 (N119A) = CXCR4 (N119A) (Homo sapiens, UniProt P61073, N119A); experiment: Basal inositol phosphate accumulation in HEK293T cells expressing CXCR4 (N119A); type: cell-based
Chain of CXCR4 (N119A) (P61073 whole entry N119A): as the sequence (P61073 whole entry) above, with N119A counted along it
Procedure: (§2) HEK293T cells were maintained at 37° C. in a humidified 5% CO2, 95% air atmosphere in Dulbecco's modified Eagle's medium (DMEM) containing 2 mM L-glutamine, 50 IU/ml penicillin, 50 μg/ml streptomycin, and 10% (v/v) fetal calf serum. Jurkat cells were cultured in a humidified 5% CO2, 95% air atmosphere in a 1:1 mixture of Dulbecco's modified Eagle's medium (DMEM) and Ham's F12 medium containing 2 mM L-glutamine, 50 IU/ml penicillin, 50 μg/ml streptomycin, and 10% (v/v) fetal calf serum. […] [^125 I]-Labelling— Radiolabeling of Nanobodies with ^125I was performed using the Iodo-gen method (Pierce, Rockford, Ill.) according to the manufacturer's protocol. ^125I-labeled Nanobodies was separated from free iodine (>99%) using a Sephadex G-25 gel filtration column (Amersham Biosciences, Piscataway, N.J.). […] Competition Binding Assays— Membranes from HEK293T cells transiently expressing CXCR3 or CXCR4 were prepared 48 h after transfection as follows. Cells were washed and scraped from the cell culture dishes with ice-cold PBS containing 1 mm EDTA. The scraped cells were pelleted at 1500×g for 10 min at 4° C. The pellet was washed and then resuspended in ice-cold membrane buffer (15 mM Tris, pH 7.5, 1 mM EGTA, 0.3 mM EDTA, and 2 mM MgCl2). The cell suspension was homogenized by 10 strokes at 1200 rpm using a Teflon-glass homogenizer and rotor and further subjected to three freeze-thaw cycles using liquid nitrogen. Membranes were separated by centrifugation at 40,000 g for 25 min at 4° C. The membrane pellet was washed and resuspended in ice-cold Tris-sucrose buffer (20 mM Tris, pH 7.4, and 250 mM sucrose) and frozen in liquid nitrogen. The total protein was determined using a Bradford assay (Bio-Rad). Periplasmas (1:10) or ligands were pre-incubated with membranes in binding buffer (50 mM HEPES (pH 7.4), 1 mM CaCl2, 5 mM MgCl2, 100 mM NaCl, 0.5% bovine serum albumin) supplemented with 0.5% BSA for 1 h at 22° C. before the addition of [^125I]-CXCL12 (40 pM) or [^125I]-238D2 (3 nM) or [^125I]-238D4 (3 nM) for additional 2 h at 22° C. […] Membranes were then harvested over polyethylenimine (0.5%)-treated Whatman GF/C filter plates and washed three times with ice cold binding buffer containing 500 mM NaCl. Plates were counted by liquid scintillation. Inositol Phosphate Accumulation Assay— 24 hours post transfection with pcDNA3.1-CXCR4 and pcDNA1-HA-mG {alpha} qi5 (see Verzijl et al, 2008 supra), 250.000 cells were seeded into 24-wells plates and labelled overnight using inositol-free minimal essential medium supplemented with 1 μCi myo-[2-^3H]-inositol. The next day, the cells were washed once to remove not incorporated myo-[2-^3H]-inositol. […] In agonist experiments, the cells were directly stimulated with test compounds and LiCl (10 mM) in assay buffer for 2 h at 37° C. The stimulation was stopped by aspirating the stimulation medium and adding ice-cold 10 mM formic acid. The accumulated inositol phosphates were isolated by anion exchange chromatography and counted by liquid scintillation. CRE Reporter Gene Assay— HEK239T cells were transfected with pCRE/β-galactosidase (Chen W, Shields T S, Stork P J S, Cone R D (1995) Anal Biochem 226:349-354) and plasmids (pcDEF3 or pcDNA3.1) encoding the indicated receptors. 40,000 transfected cells per well were seeded into 96 well plates and grown in DMEM supplemented with 10% fetal calf serum. The medium was replaced 32 h after transfection by serum-free DMEM supplemented with 0.5% bovine serum albumin and ligands as indicated. […]

CXCR4 [2] = target: T1, CXCR4; experiment: [125I]-238D4 competition binding on membranes from HEK293T cells transiently expressing CXCR4; conditions: for displacement of [125I]-238D4 from CXCR4: [125I]-238D4 3 nM
Procedure: as §1

CXCR4 [3] = target: T1, CXCR4; experiment: [125I]-238D2 competition binding on membranes from HEK293T cells transiently expressing CXCR4; conditions: for displacement of [125I]-238D2 from CXCR4: [125I]-238D2 3 nM
Procedure: as §1

[4] = system: Jurkat cells endogenously expressing CXCR4; experiment: Chemotaxis assay (ChemoTx plates) with Jurkat cells towards CXCL12; type: cell-based; conditions: for inhibition of migration of Jurkat cells towards CXCL12: 300 pM CXCL12; for Imax (%), Chemotaxis, bivalent Nanobodies: Jurkat/0.3 nM CXCL12, mean ± S.E.M.; for pKi, antagonism of the chemoattractant effects of CXCL12: n=3
Procedure: as §2, with “indicated. Following 16 h of ligand incubation, the medium was removed, the cells were lysed in 100 μl of assay buffer (100 mM sodium phosphate buffer at pH 8.0, 4 mM 2-nitrophenol-β-D-pyranoside, 0.5% Triton X-100, 2 mM MgSO4, 0.1 mM MnCl2, and 40 mM β-mercaptoethanol) and incubated at room temperature.” for “indicated.”

[5] = membranes from HEK293T cells transiently expressing CXCR4, mean ± S.E.M.
[6] = at highest test concentration of 0.5 μM (footnote a: no significant displacement; b: maximum not reached)

| Molecule | displacement of [125I]-238D4 from CXCR4 (CXCR4 [2]) | displacement of [125I]-238D2 from CXCR4 (CXCR4 [3]) | Rel. potency, relative to monovalent 238D2 (CXCR4 [1]) | Rel. potency, relative to monovalent 238D4 (CXCR4 [1]) | Displacem. (%) of [125I]-CXCL12 (maximal displacement), bivalent Nanobodies (CXCR4 [1]; [5]) [%] | pKi, [125I]-CXCL12, bivalent Nanobodies (CXCR4 [1]; [5]) | inhibition of migration of Jurkat cells towards CXCL12 [4] | Imax (%), Chemotaxis, bivalent Nanobodies [4] [%] | pKi, antagonism of the chemoattractant effects of CXCL12 [4] | further results |
| --- | --- | --- | --- | --- | --- | --- | --- | --- | --- | --- |
| c1cc(CN2CCCNCCNCCCNCC2)ccc1CN1CCCNCCNCCCNCC1 [AMD3100, reference compound] | displaces | displaces | – | – | – | – | – | – | – | Displacem. (%) of [125I]-CXCL12 (maximal displacement) (CXCR4 [1]; [5]): 94 ± 2%; functional profile at CXCR4 (N119A) (CXCR4 (N119A); ligand-induced alteration of basal inositol phosphate accumulation, listed as plerixafor): neutral antagonist; also recorded: Neither significant agonistic nor inverse antagonistic activity; effect on the nanobody-induced reduction of basal inositol phosphate accumulation (CXCR4 (N119A); with 238D4, L3 and L8): antagonized; Displacem. (%) of [125I]-238D4 (maximal displacement) (CXCR4 [2]; [5]): 99 ± 4%; Displacem. (%) of [125I]-238D2 (maximal displacement) (CXCR4 [3]; [5]): 102 ± 1% |
| CXCL12: stromal-derived-factor-1, the natural (endogenous) ligand for CXCR4 [reference compound] | – | – | – | – | – | – | – | – | – | stimulation of the mutant receptor (CXCR4 (N119A); inositol phosphate accumulation): 0.4 fold over basal |
| B1 | displaces | displaces | – | – | – | – | – | – | – | Displacem. (%) of [125I]-CXCL12 at 0.5 μM (CXCR4 [1]; at highest test concentration of 0.5 μM (footnote a: no significant displacement)): 0^a %; affinity to CXCR4 (CXCR4 [1]; in words): low affinity; displacement of specifically bound [125I]-CXCL12 (CXCR4 [1]; purified ligands, highest Nanobody test concentration 0.5 μM): unable to displace; Binding (binding efficiency, competition binding with [125I]-CXCL12) (CXCR4 [1]; screening of Nanobody clone pools, membranes from HEK293T cells transiently expressing CXCR4): + (+ = 30-69%); Displacem. (%) of [125I]-238D4 at 0.5 μM (CXCR4 [2]; [6]): 38 ± 4^b %; Displacem. (%) of [125I]-238D2 at 0.5 μM (CXCR4 [3]; [6]): 45 ± 5^b %; binding mode at CXCR4 (CXCR4 [3]; displacement of labelled Nanobodies only at ≧100 nM): low affinity allosteric CXCR4 ligand |
| B2 | – | – | 27 | 17 | 103 ± 4 | 9.44 ± 0.07 | fully antagonized | 100 ± 4 | 10.19±0.27 | increase in affinity to CXCR4 over monovalent 238D2 (CXCR4 [1]; heterobivalent construct): 27 fold; increase in affinity to CXCR4 over monovalent 238D4 (CXCR4 [1]; heterobivalent construct): 17 fold |
| B3 | – | – | 28 | 17 | 92 ± 6 | 9.45 ± 0.09 | fully antagonized | 107 ± 5 | 9.86±0.04 | – |
